The results in this text go back to patent US20260092110A1 (Kyowa Kirin, published 2026).

The target in assay [1] is T1, extracellular domain protein of rat MOG to which GST is added at the C-terminus (rMOG-GST) (rat).
T1 construct: whole construct entry
Nature of the assay: SPR as in Example 8 (antibody captured, rMOG-GST analyte). The protocol: The antibodies were immobilized on CM5 sensor chips using a Human antibody Capture kit, and the binding abilities were evaluated using rMOG-GST produced in Example 4 as an analyte. The obtained sensorgrams were analyzed with BIA evaluation software, and the dissociation constants (KD values) were thus calculated.
Binding of the bispecific antibodies obtained in Example 6 and Example 16 to MOG was evaluated by the same method as that of Example 8.

For assay [2], the target named is T2, human MOG (hMOG) expressed on HEK293, Expi293F or L929 cells (human, UniProt Q16653 30-247).
T2 construct: also called hMOG/HEK293; hMOG/HEK293F
T2 chain: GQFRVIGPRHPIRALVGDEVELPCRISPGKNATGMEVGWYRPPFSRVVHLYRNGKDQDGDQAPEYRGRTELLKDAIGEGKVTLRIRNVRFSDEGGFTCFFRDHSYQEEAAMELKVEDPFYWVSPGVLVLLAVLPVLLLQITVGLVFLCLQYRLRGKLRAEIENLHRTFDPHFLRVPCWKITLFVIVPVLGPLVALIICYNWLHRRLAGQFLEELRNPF
Nature of the assay: flow cytometry on L929 cells expressing human MOG (hMOG/L929); antibody titrated, RPE-labelled goat anti-human antibody. An excerpt:
pEF6_hMOG obtained in Example 5 was introduced to mouse connective tissue-derived fibroblast L929 cells [American Type Culture Collection (ATCC) No.: CCL-1] using HilyMax (manufactured by Dojindo Laboratories). The gene-transfected cells were selected using an antibiotic substance, Blasticidin (manufactured by Invitrogen) and then cloned by the limiting dilution method. Using the L929 cells expressing hMOG on the cell surface (abbreviated as hMOG/L929 below), the reactivities of the bispecific antibodies were analyzed by the method described below.
The hMOG/L929 cells were suspended in a Staining Buffer (SB) of PBS containing 0.1% NaN₃ and 1% FBS and dispensed to a round-bottom 96-well plate (manufactured by Becton Dickinson). […] After suspending the pellets, the plate was left to stand at ice temperature for 30 minutes. The supernatants were removed after further centrifugation (2000 rpm, 4° C., two minutes), and the pellets were washed with SB. Then, 1 μg/mL RPE fluorescently labeled goat anti-human antibody (manufactured by Southern Biotech) was added, and the plate was incubated at ice temperature for 30 minutes. After washing with SB, the cells were suspended in SB, and the fluorescence intensities of the cells were measured with a flow cytometer FACS CANTO II (manufactured by Becton Dickinson). The results are shown in FIGS. 12A to 12C and FIGS. 13A and 13B.

T1 sequence (chain, as listed by the source limits assumed): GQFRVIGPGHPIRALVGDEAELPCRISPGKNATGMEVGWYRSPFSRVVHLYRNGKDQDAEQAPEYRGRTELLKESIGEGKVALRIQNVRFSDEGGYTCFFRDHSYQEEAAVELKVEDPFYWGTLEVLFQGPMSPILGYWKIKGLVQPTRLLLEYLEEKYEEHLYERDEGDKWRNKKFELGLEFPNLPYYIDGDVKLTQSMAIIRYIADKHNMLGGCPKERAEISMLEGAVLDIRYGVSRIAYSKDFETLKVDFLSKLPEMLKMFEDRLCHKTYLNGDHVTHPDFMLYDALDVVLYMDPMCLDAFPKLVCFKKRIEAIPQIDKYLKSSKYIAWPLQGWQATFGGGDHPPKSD

B1: AVM-MOG01 IgG4PE(R409K) antibody (bispecific antibody)
heavy 1: EVQLVESGGGLVQPGRSLKLSCAASGFTFSNYAMAWVRRAPTKGLEWVASISNGGGNTYYRDSVKGRFTISRDDAKNTLYLQMDSLRSEDTATYYCARHGNYIYYGSFFDYWGQGVMVTVSSASTKGPSVFPLAPCSRSTSESTAALGCLVKDYFPEPVTVSWNSGALTSGVHTFPAVLQSSGLYSLSSVVTVPSSSLGTKTYTCNVDHKPSNTKVDKRVESKYGPPCPPCPAPEFEGGPSVFLFPPKPKDTLMISRTPEVTCVVVDVSQEDPEVQFNWYVDGVEVHNAKTKPREEQFNSTYRVVSVLTVLHQDWLNGKEYKCKVSNKGLPSSIEKTISKAKGQPREPQVYTLPPCQEEMTKNQVSLWCLVKGFYPSDIAVEWESNGQPENNYKTTPPVLDSDGSFFLYSKLTVDKSRWQEGNVFSCSVMHEALHNHYTQKSLSLSLGKDYKDDDDK
heavy 2: QVQLQQSGAGLLKPSETLSLTCAVSGGSFSGYYWTWIRQRPGKGLEWIGEINHRGSTDYNPSLKSRVTMSIDTSKSQFSLNLKSVTAADTAVYYCARAAWGSCYDGTCYPAEYFQYWGQGTLVTVSSASTKGPSVFPLAPCSRSTSESTAALGCLVKDYFPEPVTVSWNSGALTSGVHTFPAVLQSSGLYSLSSVVTVPSSSLGTKTYTCNVDHKPSNTKVDKRVESKYGPPCPPCPAPEFEGGPSVFLFPPKPKDTLMISRTPEVTCVVVDVSQEDPEVQFNWYVDGVEVHNAKTKPREEQFNSTYRVVSVLTVLHQDWLNGKEYKCKVSNKGLPSSIEKTISKAKGQPREPQVCTLPPSQEEMTKNQVSLSCAVKGFYPSDIAVEWESNGQPENNYKTTPPVLDSDGSFFLVSKLTVDKSRWQEGNVFSCSVMHEALHNHYTQKSLSLSLGKHHHHHH
light 1: QFVLSQPNSVSTNLGSTVKLSCKRSTGNIGSNYVSWYQQHEGRSPTTMIYRDDKRPDGVPDRFSGSIDRSSDSALLTINNVQTEDEADYFCQSYSSGINIFGGGTKLTVLGQPKAAPSVTLFPPSSEELQANKATLVCLISDFYPGAVTVAWKADSSPVKAGVETTTPSKQSNNKYAASSYLSLTPEQWKSHRSYSCQVTHEGSTVEKTVAPTECS
light 2: QSALTQPASVSGSPGQSITISCTGTSRDVGGYNYVSWYQQHPGKAPKLMIYDVNNRPSGVSNRFSGSKSGNTASLTISGLQAEDEADYFCSSYTSSSTPVVFGGGTKLTVLGQPKAAPSVTLFPPSSEELQANKATLVCLISDFYPGAVTVAWKADSSPVKAGVETTTPSKQSNNKYAASSYLSLTPEQWKSHRSYSCQVTHEGSTVEKTVAPTECS
notes: copies: 1 + 1 + 1 + 1
As for B1, in assay [1], the Kd (commonly the free concentration of one partner at which half of the binding sites on the other are occupied at equilibrium, for simple one-to-one binding) is 12 nM; the koff (as a rule, a measure of how fast the partners let go of each other) was 0.0016 s⁻¹; the kon (as a rule, the second-order rate constant of association) came to 130000 M⁻¹ s⁻¹. Further, the binding result in assay [2] is “binds”.

B2: AVM IgG4PE(R409K)_AVMsscFv ANTIBODY (antibody)
heavy 1: EVQLVESGGGLVQPGRSLKLSCAASGFTFSNYAMAWVRRAPTKGLEWVASISNGGGNTYYRDSVKGRFTISRDDAKNTLYLQMDSLRSEDTATYYCARHGNYIYYGSFFDYWGQGVMVTVSSASTKGPSVFPLAPCSRSTSESTAALGCLVKDYFPEPVTVSWNSGALTSGVHTFPAVLQSSGLYSLSSVVTVPSSSLGTKTYTCNVDHKPSNTKVDKRVESKYGPPCPPCPAPEFEGGPSVFLFPPKPKDTLMISRTPEVTCVVVDVSQEDPEVQFNWYVDGVEVHNAKTKPREEQFNSTYRVVSVLTVLHQDWLNGKEYKCKVSNKGLPSSIEKTISKAKGQPREPQVYTLPPCQEEMTKNQVSLWCLVKGFYPSDIAVEWESNGQPENNYKTTPPVLDSDGSFFLYSKLTVDKSRWQEGNVFSCSVMHEALHNHYTQKSLSLSLGGGSGGGGSGGGGSGGGGSEVQLVESGGGLVQPGRSLKLSCAASGFTFSNYAMAWVRRAPTKGLEWVASISNGGGNTYYRDSVKGRFTISRDDAKNTLYLQMDSLRSEDTATYYCARHGNYIYYGSFFDYWGQGVMVTVSSGGGGSGGRASGGGGSQFVLSQPNSVSTNLGSTVKLSCKRSTGNIGSNYVSWYQQHEGRSPTTMIYRDDKRPDGVPDRFSGSIDRSSDSALLTINNVQTEDEADYFCQSYSSGINIFGGGTKLTVLDYKDDDDK
heavy 2: EVQLVESGGGLVQPGRSLKLSCAASGFTFSNYAMAWVRRAPTKGLEWVASISNGGGNTYYRDSVKGRFTISRDDAKNTLYLQMDSLRSEDTATYYCARHGNYIYYGSFFDYWGQGVMVTVSSASTKGPSVFPLAPCSRSTSESTAALGCLVKDYFPEPVTVSWNSGALTSGVHTFPAVLQSSGLYSLSSVVTVPSSSLGTKTYTCNVDHKPSNTKVDKRVESKYGPPCPPCPAPEFEGGPSVFLFPPKPKDTLMISRTPEVTCVVVDVSQEDPEVQFNWYVDGVEVHNAKTKPREEQFNSTYRVVSVLTVLHQDWLNGKEYKCKVSNKGLPSSIEKTISKAKGQPREPQVCTLPPSQEEMTKNQVSLSCAVKGFYPSDIAVEWESNGQPENNYKTTPPVLDSDGSFFLVSKLTVDKSRWQEGNVFSCSVMHEALHNHYTQKSLSLSLGKHHHHHH
light: QFVLSQPNSVSTNLGSTVKLSCKRSTGNIGSNYVSWYQQHEGRSPTTMIYRDDKRPDGVPDRFSGSIDRSSDSALLTINNVQTEDEADYFCQSYSSGINIFGGGTKLTVLGQPKAAPSVTLFPPSSEELQANKATLVCLISDFYPGAVTVAWKADSSPVKAGVETTTPSKQSNNKYAASSYLSLTPEQWKSHRSYSCQVTHEGSTVEKTVAPTECS
As for B2, the binding result in assay [2] is given as “no binding”.

B3: AVM IgG4PE(R409K)_MOG01dscFv11 antibody (bispecific antibody)
heavy: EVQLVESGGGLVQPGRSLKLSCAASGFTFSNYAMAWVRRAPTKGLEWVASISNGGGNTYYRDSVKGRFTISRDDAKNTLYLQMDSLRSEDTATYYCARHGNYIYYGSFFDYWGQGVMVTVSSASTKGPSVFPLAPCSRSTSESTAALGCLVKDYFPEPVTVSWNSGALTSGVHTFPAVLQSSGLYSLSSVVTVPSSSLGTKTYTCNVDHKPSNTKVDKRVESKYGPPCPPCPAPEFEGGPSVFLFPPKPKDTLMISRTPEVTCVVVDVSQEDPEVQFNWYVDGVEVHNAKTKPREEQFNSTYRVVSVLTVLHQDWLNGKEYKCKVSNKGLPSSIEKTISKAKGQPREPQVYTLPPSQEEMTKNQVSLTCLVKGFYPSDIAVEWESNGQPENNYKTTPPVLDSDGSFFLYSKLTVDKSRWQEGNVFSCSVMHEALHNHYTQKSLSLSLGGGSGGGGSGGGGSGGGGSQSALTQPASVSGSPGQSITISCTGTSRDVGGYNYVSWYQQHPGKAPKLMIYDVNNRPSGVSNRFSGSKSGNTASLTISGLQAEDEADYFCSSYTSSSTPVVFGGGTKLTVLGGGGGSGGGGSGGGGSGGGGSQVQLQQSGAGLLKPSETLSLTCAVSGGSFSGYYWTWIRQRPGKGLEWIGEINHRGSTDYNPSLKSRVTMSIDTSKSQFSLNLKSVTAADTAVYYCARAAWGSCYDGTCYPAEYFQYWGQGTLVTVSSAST
light: QFVLSQPNSVSTNLGSTVKLSCKRSTGNIGSNYVSWYQQHEGRSPTTMIYRDDKRPDGVPDRFSGSIDRSSDSALLTINNVQTEDEADYFCQSYSSGINIFGGGTKLTVLGQPKAAPSVTLFPPSSEELQANKATLVCLISDFYPGAVTVAWKADSSPVKAGVETTTPSKQSNNKYAASSYLSLTPEQWKSHRSYSCQVTHEGSTVEKTVAPTECS
notes: also called pCI-AVM-hLG4PE(R409K)_MOG01scFv11
On to B3, for which the binding result in assay [2] is given as “binds”.

B4: AVM IgG4PE(R409K)_AVM Fab ANTIBODY (antibody)
heavy 1: not shown
heavy 2: EVQLVESGGGLVQPGRSLKLSCAASGFTFSNYAMAWVRRAPTKGLEWVASISNGGGNTYYRDSVKGRFTISRDDAKNTLYLQMDSLRSEDTATYYCARHGNYIYYGSFFDYWGQGVMVTVSSASTKGPSVFPLAPCSRSTSESTAALGCLVKDYFPEPVTVSWNSGALTSGVHTFPAVLQSSGLYSLSSVVTVPSSSLGTKTYTCNVDHKPSNTKVDKRV
light: QFVLSQPNSVSTNLGSTVKLSCKRSTGNIGSNYVSWYQQHEGRSPTTMIYRDDKRPDGVPDRFSGSIDRSSDSALLTINNVQTEDEADYFCQSYSSGINIFGGGTKLTVLGQPKAAPSVTLFPPSSEELQANKATLVCLISDFYPGAVTVAWKADSSPVKAGVETTTPSKQSNNKYAASSYLSLTPEQWKSHRSYSCQVTHEGSTVEKTVAPTECS
Regarding B4, in assay [2], the binding result is given as “no binding”.

B5: AVM IgG4PE(R409K)_MOG01dscFv10 antibody (bispecific antibody)
heavy: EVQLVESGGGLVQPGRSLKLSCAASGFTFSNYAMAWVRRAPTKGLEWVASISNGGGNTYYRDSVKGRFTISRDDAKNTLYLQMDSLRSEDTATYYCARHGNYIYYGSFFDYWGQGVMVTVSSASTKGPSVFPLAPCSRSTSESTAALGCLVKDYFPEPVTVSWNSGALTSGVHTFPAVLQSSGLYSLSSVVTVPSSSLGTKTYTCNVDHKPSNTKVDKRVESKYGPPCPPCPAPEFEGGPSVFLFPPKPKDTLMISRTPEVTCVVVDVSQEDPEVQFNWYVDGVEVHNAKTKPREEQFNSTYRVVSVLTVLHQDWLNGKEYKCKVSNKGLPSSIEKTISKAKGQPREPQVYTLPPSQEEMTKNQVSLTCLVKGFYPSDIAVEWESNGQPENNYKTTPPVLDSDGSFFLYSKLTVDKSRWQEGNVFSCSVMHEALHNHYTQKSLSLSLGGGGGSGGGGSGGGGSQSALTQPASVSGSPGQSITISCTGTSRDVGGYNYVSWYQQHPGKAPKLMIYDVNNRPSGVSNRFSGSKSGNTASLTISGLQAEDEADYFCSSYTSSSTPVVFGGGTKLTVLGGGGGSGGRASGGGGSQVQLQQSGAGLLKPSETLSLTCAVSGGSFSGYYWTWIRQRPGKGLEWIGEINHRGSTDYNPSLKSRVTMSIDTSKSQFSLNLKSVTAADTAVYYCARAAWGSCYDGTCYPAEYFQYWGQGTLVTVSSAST
light: QFVLSQPNSVSTNLGSTVKLSCKRSTGNIGSNYVSWYQQHEGRSPTTMIYRDDKRPDGVPDRFSGSIDRSSDSALLTINNVQTEDEADYFCQSYSSGINIFGGGTKLTVLGQPKAAPSVTLFPPSSEELQANKATLVCLISDFYPGAVTVAWKADSSPVKAGVETTTPSKQSNNKYAASSYLSLTPEQWKSHRSYSCQVTHEGSTVEKTVAPTECS
notes: also called AVM IgG4PE(R409K)_MOG01dscFvlO antibody; pCI-AVM-hLG4PE(R409K)_MOG01scFv10
Turning to B5, the binding result in assay [2] is recorded as “binds”.
